A word on the Kd: it is the concentration at which binding is half-saturated.

We go through four substances from publication PMC4146615.

The target of data set [1] is T1, SoxR (Streptomyces coelicolor) (UniProt Q9S255).
T1 sequence: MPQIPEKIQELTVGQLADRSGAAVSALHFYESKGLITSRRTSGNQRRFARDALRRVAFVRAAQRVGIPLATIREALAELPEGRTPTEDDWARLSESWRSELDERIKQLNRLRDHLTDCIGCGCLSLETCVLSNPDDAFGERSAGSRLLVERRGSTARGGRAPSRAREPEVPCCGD
The experiment in a line: EMSA. As to conditions: EMSA: 10 mM Tris-HCl pH 8, 75 mM KCl, 0.1 mM DTT, 10% glycerol, 2 mM MgCl2, 0.1 ug poly(dI)-poly(dC), 2 mM dAMP, 30 uL, 6 fmol probe, SoxR 0-20 nM, 15 min ….

Data set [2] concerns the target T1, SoxR (Streptomyces coelicolor). The experiment in a line: competition. To be noted: EMSA: 10 mM Tris-HCl pH 8, 75 mM KCl, 0.1 mM DTT, 10% glycerol, 2 mM MgCl2, 0.1 ug poly(dI)-poly(dC), 2 mM dAMP, 30 uL, 6 fmol probe, SoxR 0-20 nM, 15 min …. (A gel shift assay detects complexes by their altered migration in electrophoresis.)

Turning to “GACAGTCGTAGGCGGTTCCGCCCCTCCATACGTCACCCCTTGCCGACCGGCCCGACTCCACCGCGGACGACGGACGAGCCTTGACCTCGACCGGACTTGAGGTTGGAGGCTGGGCGGGATGTCGCCTCCAGTGAAGGGTGCTGCTCATGCATGCGATCCACGTGGCCTCGTTCGGTGCTCCGGACGTGCTGAGCCTGGTC (double strand) [SCO0320ext promoter probe]”, the K_half result in data set [1] was “binds”. The binding entry in data set [2] is listed as “binds”.

With SCO0321 upstream probe, in data set [1], the dissociation constant (Kd) is above 20 nM.

In data set [1], SCO1177 upstream probe registered a dissociation constant Kd above 20 nM.

In data set [1], ecaD (SCO4266) promoter probe gave a dissociation constant (Kd) of 5 nM. This counts as single-digit nanomolar.
